Experimental data from patent US20220194997A1 (published 2022).
Where no end group is shown, it is not given here.

T1: αsyn(59-66)
T1 peptide: TKEQVTNV

T2: αsyn(87-95)
T2 peptide: SIAAATGFV

T3: αsyn(35-45)
T3 peptide: EGVLYVGSKTK

T4: αsyn(48-60)
T4 peptide: VVHGVATVAEKTK

T5: αsyn(74-84)
T5 peptide: VTAVAQKTVEG


Tests used:
Assay in all cases: MST
[1] = target: human wild-type α-synuclein (full-length) (UniProt P37840 1-140)
αSyn-SIM1(5A) = target: αSyn-SIM1(5A)
αSyn-SIM2(5A) = target: αSyn-SIM2(5A)
αsyn(59-66) = target: T1, αsyn(59-66)
αsyn(87-95) = target: T2, αsyn(87-95)
αsyn(35-45) = target: T3, αsyn(35-45)
αsyn(48-60) = target: T4, αsyn(48-60)
αsyn(74-84) = target: T5, αsyn(74-84)
α-Synuclein-V40R/V49R = target: α-Synuclein-V40R/V49R

Kd [1] | Kd (αSyn-SIM1(5A)) | Kd (αSyn-SIM2(5A)) | Kd (αsyn(59-66)) | Kd (αsyn(87-95)) | Kd (αsyn(35-45)) | Kd (αsyn(48-60)) | Kd (αsyn(74-84)) | Kd (α-Synuclein-V40R/V49R) | Binder
2.32 µM | – | – | – | – | – | – | – | – | SSEIHFKVKMTTHLKKLKESYCQRQ [SUMO1(31-55)]
– | 19.6 µM | 0.86 µM | 108 µM | 364 µM | 1.19 µM | 0.87 µM | 195 µM | 88.3 µM | DKKEGEYIKLKVIGQDSSEIHFKVKMTTHLKKLKESYCQRQ (also: Alexa Fluor 647 NHS ester on amines when used as MST target) [SUMO1(15-55)]
